Laboratory results published in US20190202912A1 (NEXTCURE, published 2019).
Changes are numbered by the printed parent chain.

B1: 9A5 (antibody, V domains shown)
VH: HVQLQQSGAELARPGASVKLSCKASGYTFTSYGLIWVKQRTGQGLEWIGEIYPRSGNTYYNEKFKGKATLTADISSSTAYMELRSLTSEDSAVYFCASSSPHGDYWGQGTTLTVSS
VL: not shown
B2: NC28 (antibody, V domains shown)
VH: QVQLQQSGAELARPGASVKLSCKASGYTFISYGITWVKQRTGQGLEWIGEIHPRSGNTYYNENFKDRASLTADKSSSTAYMEVRSLTSEDSAVYFCARGGPGDYWGQGTTLTVSS
VL: not shown
notes: mouse anti-human Siglec-15 mAb; also called 28A
B3: NC63 (antibody, V domains shown)
VH: QVQLQQSGAELARPGASVKLSCKASGYTFTSYGISWVKQRTGQGLEWIGQIYPRSDNTYYNERFKGKATLTADKSSSTAYMALRSLTSEDSAVYFCAREGGPDYWGQGTTLTVSS
VL: not shown
notes: mouse anti-human Siglec-15 mAb; also called 63A
B4: 105A (antibody, V domains shown)
VH: EVQLQQSGAELVRPGASVKLSCTASGFNIKDDYMHWVKQRPEQGLEWIGCIDPENGDIEYASRFQGKATMTADTSSNTAYLQLTSLTSADTAVYYCTTYVGFGYWGQGTLVTVSA
VL: DVLMTQTPLSLPVSLGDQASISCRSSQSIVHSNGNTYLEWYLQKPGQSPKLLIYKVSNRFSGVPDRFSGSGSGTDFTLKISRVEAEDLGVYYCFQGSHVPLTFGAGTKLELK
notes: Mouse anti-human Siglec-15 mAb; also called NC105
B5: 1C12 (antibody, V domains shown)
VH: EVQLVESGGGLVKPGGSLKLSCAASGFSFSDYGMHWVRQAPEKGLEWVAYISSGSSILYYADIVKGRFTISRDNAKNTLFLQMTSLRSEDTAMYYCARDHYHGNGSDYWGQGTTLTVSS
VL: B4 VL with L101W, A105G, L111I
notes: Mouse anti-human Siglec-15 mAb
B6: 77A (antibody, V domains shown)
VH: B4 VH with I58T, R63K, M70I, A79V, T84S, A89E
VL: B4 VL with T7S, S28N, Q43K, V90M
notes: Mouse anti-human Siglec-15 mAb; also called NC77
B7: 6A (antibody, V domains shown)
VH: B4 VH with I58T, R63K, G66D, M70I, A72T, T84S, A89E, G103A, A115T
VL: B4 VL with K79R
notes: Mouse anti-human Siglec-15 mAb; also called NC6
B8: 1B2 (antibody, V domains shown)
VH: B5 VH with L11F, S28T, L58I, I63T
VL: B4 VL with L101W, A105G, L111I
notes: as for B5
B9: 92A (antibody, V domains shown)
VH: DVQLQESGPGLVKFSQSLSLTCSVTGYSITSGYYWNWIRQFPGNKLEWMGYIRHDGSNNYNPSLKNRISITRDTSKNQFFLKLNSVITEDTATYYCVREIYDGSSGYFDVWGTGTTVTVSS
VL: QIVLTQSPAIMSASLGEEITLICSASSSVSYMHWYQQKSGTSPKLLIYRTSNLASGVPSRFSGSGSGTFYSLTISSVEAEDAADYYCHQWSSWTFGGGTQLEIK
notes: Mouse anti-human Siglec-15 mAb; also called NC92
B10: 10G9 (antibody, V domains shown)
VH: EVQLLETGGGLVQPGGSRGLSCEGSGFTFSDFWMSWVRQTPGKTLEWIGDINSDGSAVNYAPSIKDQFTIFRDNDKRTLHLQMINVRSEDTATYFCVRYDDYGYFDVWGTGTTVTVSS
VL: QAVVTQESALTTSPGETVTLTCRSSTGAVTTSNYANWVQEKPDHLFTGLIGGTNNRAPGVPARFSGSLIGDKAALTITGAQTEDEAIYFCALWYSNHWVFGGGTKLTVL
notes: as for B5
B11: 8H8 (antibody, V domains shown)
VH: B10 VH with D31G, V58I, Q67R, R77N, H80Y, I84N
VL: B10 VL with T26S, S32G, Y34F
notes: as for B5
B12: 83B (antibody, V domains shown)
VH: EVQLQQSGPELVKPGASVKMSCKASGYTFTDYNMHWVKQSHGKSLEWIGYINPNNGGTSYNQKFKDKATLTVNKSSSTAFMELRSLASEDSAVYYCARSDWEDCWGQGTTLTVSS
VL: EIQMTQSPSSMSASLGDRITITCQATQDIVKNLNWYQQKPGKPPSFLIYYATELAEGVPSRFSGSGSGSDYSLTISNLESEDFADYYCLQFYEFPYTFGGGTKLEIK
notes: Mouse anti-human Siglec-15 mAb; also called NC83
B13: 1C3 (antibody, V domains shown)
VH: QVQLKQSGAELVKPGASVKISCKASGYIFTDYYVNWVKQRPGQGLEWIGKIGPGSVSIYYNEKFKGKATLTADKSSSTAYMQLSSLTSEDSAVYFCASYYYGFAYWGQGTLVTVSA
VL: DIVMTQAAPSVPVTPGESVSISCRSSKSLLHSNGNTYLYWFLQRPGQSPQLLIYRMSNLASGVPDRFGGSGSGTAFTLRISRVEAEDVGFYYCMQHLEYPYTFGGGTRLEIK
notes: as for B5
B14: 6F8 (antibody, V domains shown)
VH: B13 VH with A9P, K13R, K23E, I28T, Q43R, G66D, S85G
VL: DIVMTQAAPSVPVTPGESVSISCRSSKSLLHSNGNTYLYWFLQRPGQSPQLLIYRMSNLASGVPDRFGGSGSGTAFTLRISRVEAEDVGVYYCMQHLEYPYTFGGGTKLEIKR
notes: as for B5
B15: 8C8 (antibody, V domains shown)
VH: B13 VH with I28T, G54E, N61S, G66A
VL: B13 VL with F90V, R108K
notes: as for B5
B16: 104B (antibody, V domains shown)
VH: B3 VH with A9P, Y52H, D56G, R63N, D73A, M81L, A82E
VL: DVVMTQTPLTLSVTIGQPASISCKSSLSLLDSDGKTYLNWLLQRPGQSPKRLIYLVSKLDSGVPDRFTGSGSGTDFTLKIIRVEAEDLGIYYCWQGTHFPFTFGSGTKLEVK
notes: Mouse anti-human Siglec-15 mAb; also called NC104
B17: 3H10 (antibody, V domains shown)
VH: EVQLQQSGAELVRPGASVKLSCTASGFNIKDYYMHWVKERPEQGLEWIGRIDPEDGDIEYDPKFQGKATMTADTSSNTAYLQFSSLTSEDTAVYYCVTDYDYDGGWFAYWGQGTLVTVSA
VL: QIILTQSPAIMSASPGEKVTMTCSASSSTSFMHWYQQKPGTSPKRWIFDTSKLASGVPGRFIGSGSGTSYSLTISTMEAEDAATYYCHQRSAYPWTFGGGTKLEIK
notes: as for B5
B18: 80A (antibody, V domains shown)
VH: QVQLKQSGAELVRPGASVKLSCRASGYTFTDFYINWVKQRPGQGLEWIARIYPGSDETYYNEKFKDKVTLTAEKSSSTAYMQLSSLTSEDSAVYFCALWFFDVWGTGTTVTVSS
VL: DIVMTQSPSSLTVTAGEKVTMSCKSNQSLLNSGDQKNYLTWYQQKPGQPPKLLIYWASTRESGVPDRFTGSGSGTDFTLTISSVQAEDLAIYYCQNDYSYPLTFGAGTKLELK
notes: Mouse anti-human Siglec-15 mAb; also called NC80
B19: 93B (antibody, V domains shown)
VH: QVQLKQSGAELVRPGASVKLSCKASGYTFTDYYINWVKQRPGQGLEWIARIYPGNGNTDYNEKFKDKATLTAEKSSTTAYIQLSSLTSEDSAVYFCCLWYFDVWGTGTTVTVSS
VL: B18 VL with N26S, D34N, S83N, A86P, I91V, Y100F, L102F, A106S, K109E, L112M
notes: Mouse anti-human Siglec-15 mAb; also called NC93
B20: 99B (antibody, V domains shown)
VH: QVQLQQSGAELARPGASVKLSCKASGYTFTSDGITWLKQRTGQGLEWIGQIHPRSGNTYYNEKFKGKATLTADKSSSTAYMELRSLTSEDSAVYFCAKTGTGDYWGQGTTLTVSS
VL: not shown
notes: Mouse anti-human Siglec-15 mAb; also called NC99
B21: 82B (antibody, V domains shown)
VH: B20 VH with L37V, E62G, K74R, A79T
VL: not shown
notes: Mouse anti-human Siglec-15 mAb; also called NC82

Biological target: T1, hS15 (Homo sapiens, UniProt Q6ZMC9)
T1 construct: full length, cell surface; also called human Siglec-15; huS15
T1 sequence (membrane protein on cells, looked up): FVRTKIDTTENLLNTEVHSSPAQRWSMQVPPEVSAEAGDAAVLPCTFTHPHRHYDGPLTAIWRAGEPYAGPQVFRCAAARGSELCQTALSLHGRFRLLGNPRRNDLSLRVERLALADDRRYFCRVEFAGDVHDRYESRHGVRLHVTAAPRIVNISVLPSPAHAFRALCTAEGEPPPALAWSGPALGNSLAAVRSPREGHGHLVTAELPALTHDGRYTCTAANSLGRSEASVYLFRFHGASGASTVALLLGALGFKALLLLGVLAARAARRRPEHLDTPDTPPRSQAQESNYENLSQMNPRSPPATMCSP
Experiment: flow cytometry, live 293T.hS15 cells, 1 µg mAb/1E05 cells/100 µL, PE secondary
Method: Cells were sorted to establish human S15 and mouse S15 stable cell lines. […] 1E05 cells in 100 μL FACS buffer were aliquoted to separate tubes and 1 μg of purified mAb was added. Cells were incubated at 4 degrees C. for 30 minutes, then washed twice with excess FACS buffer. Cells were resuspended in 100 μL FACS buffer and 0.005 μg of anti-mouse IgG-PE secondary antibody was added to samples, incubated for 30 minutes and washed twice with excess FACS buffer. Cells were fixed in fixation buffer and subsequently analyzed by flow cytometry.

B1: binds.
B2: binds.
B3: binds.

Biological target: T2, S15-extra cellular domain (ECD) monomer (human, UniProt Q6ZMC9 20-263)
T2 construct: also called S15 monomer protein
T2 sequence: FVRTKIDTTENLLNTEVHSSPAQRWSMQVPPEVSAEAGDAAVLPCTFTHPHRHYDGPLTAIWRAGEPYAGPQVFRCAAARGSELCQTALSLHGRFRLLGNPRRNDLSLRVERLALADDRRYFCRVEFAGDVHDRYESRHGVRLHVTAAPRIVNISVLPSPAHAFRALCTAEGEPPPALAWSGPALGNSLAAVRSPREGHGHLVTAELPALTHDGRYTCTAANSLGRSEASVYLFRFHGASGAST
Experiment: BLI (Octet RED96), mAb on anti-human Fc sensors, S15-ECD monomer in solution, global fit
Method: Optimized KD experiments were performed on a ForteBio Octet RED96 instrument using anti-human Fc capture (AHC, 18-5060; ForteBio) sensors. Assay buffer was PBS containing 0.05% Tween-20 and regeneration buffer was 10 mM glycine (pH 1.5). First the antibodies were loaded at 1 μg/mL for 600 seconds. This was followed by a 60 second baseline step, a 300 second association step in S15-extra cellular domain (ECD) monomer, and finally a 1200 second dissociation step. The monomer concentrations ranged from 100 nM to 1.56 nM in a two-fold dilution series and a blank well was included. Data was processed using ForteBio's Data Analysis Software 7.0; a global fit was used, along with reference well subtraction. Reported values are the average of at least three independent octet runs.

First: B4
Second: B5
The Kd of the first is 2.9-fold lower: 1.39 nM for the first, 4.01 nM for the second.

First: B6
Second: B7
The Kd of the first is 1.5-fold lower: 1.93 nM for the first, 2.94 nM for the second. The first binds more tightly here.

First: B8
Second: B9
The Kd of the first is 3-fold higher: 4.33 nM for the first, 1.42 nM for the second.

First: B10
Second: B11
The Kd of the first is 2.4-fold lower: 0.55 nM for the first, 1.3 nM for the second. The first binds more tightly here.

First: B12
Second: B13
The Kd of the first is 2.1-fold higher: 1.19 nM for the first, 0.58 nM for the second. The second binds more tightly here.

First: B14
Second: B15
The Kd of the first is 2-fold lower: 0.44 nM for the first, 0.89 nM for the second.

First: B16
Second: B17
The Kd of the first is 5.1-fold higher: 3.08 nM for the first, 0.6 nM for the second. The second binds more tightly here.

First: B18
Second: B19
The Kd of the first is 1.8-fold lower: 0.5 nM for the first, 0.88 nM for the second. The first binds more tightly here.

B20 and B21 are within 1.5-fold of each other in Kd: 3.86 nM for the first, 4.84 nM for the second.

First: B4
Second: B5
The koff of the first is 4.1-fold lower: 0.000102 s⁻¹ for the first, 0.000423 s⁻¹ for the second.

B6 and B7 are within 1.5-fold of each other in koff: 0.000143 s⁻¹ for the first, 0.000211 s⁻¹ for the second.

First: B8
Second: B9
The koff of the first is 4.3-fold higher: 0.000609 s⁻¹ for the first, 0.00014 s⁻¹ for the second.

Going from B10 to B11, the koff rises from 0.000152 s⁻¹ to 0.00027 s⁻¹ (1.8-fold).

Compared with B12, B13 is 2.4-fold lower in koff: 0.000415 s⁻¹ for the first, 0.000174 s⁻¹ for the second.

First: B14
Second: B15
The koff of the first is 1.7-fold lower: 0.000134 s⁻¹ for the first, 0.00023 s⁻¹ for the second.

Compared with B16, B17 is 3-fold higher in koff: 5.9e-05 s⁻¹ for the first, 0.000178 s⁻¹ for the second.

B18 and B19 are within 1.5-fold of each other in koff: 0.000175 s⁻¹ for the first, 0.000162 s⁻¹ for the second.

B20 and B21 are within 1.5-fold of each other in koff: 0.000102 s⁻¹ for the first, 0.0001 s⁻¹ for the second.

B4 and B5 are within 1.5-fold of each other in kon: 72000 M⁻¹ s⁻¹ for the first, 105000 M⁻¹ s⁻¹ for the second.

B6 and B7 are within 1.5-fold of each other in kon: 72000 M⁻¹ s⁻¹ for the first, 73000 M⁻¹ s⁻¹ for the second.

B8 and B9 are within 1.5-fold of each other in kon: 143000 M⁻¹ s⁻¹ for the first, 99000 M⁻¹ s⁻¹ for the second.

B10 and B11 are within 1.5-fold of each other in kon: 277000 M⁻¹ s⁻¹ for the first, 209000 M⁻¹ s⁻¹ for the second.

B12 and B13 are within 1.5-fold of each other in kon: 353000 M⁻¹ s⁻¹ for the first, 317000 M⁻¹ s⁻¹ for the second.

B14 and B15 are within 1.5-fold of each other in kon: 304000 M⁻¹ s⁻¹ for the first, 292000 M⁻¹ s⁻¹ for the second.

Compared with B16, B17 is 13-fold higher in kon: 23000 M⁻¹ s⁻¹ for the first, 306000 M⁻¹ s⁻¹ for the second.

Going from B18 to B19, the kon falls from 348000 M⁻¹ s⁻¹ to 185000 M⁻¹ s⁻¹ (1.9-fold).

B20 and B21 are within 1.5-fold of each other in kon: 32000 M⁻¹ s⁻¹ for the first, 23000 M⁻¹ s⁻¹ for the second.
